Measured values as given in US20230085393A1.

Key:
[1] = molecular target: ZIKV Brazil strain virus (Asian lineage), E2 antigen on virions (Zika virus)
[2] = molecular target: ZIKV Dakar strain virus (African lineage), E2 antigen on virions (Zika virus)

Binder | IC50, RTCA cellular impedance neutralisation assay on Vero cells [1] | IC50, RTCA cellular impedance neutralisation assay on Vero cells [2]
ZIKV-120764-350 (antibody, V domains shown) VH: DVQLVESGGGLIQPGGSLRLSCAASGFTARTNYMTWVRQAPGKGLEWVSVIYSGGSTIYADSVKGRFTISRDNAKNSLYLQMNSLRAEDTAVYYCARDRGYLDHWGQGTLVTVSS VL: EIVLTQSPATLSLSPGERATLSCRASQSVTNYFAWYQQRPGQAPRLLIYDVSNRATGIPARFSGSGSGTDFTLTISSLEPEDFAVYYCQQRSNWPYTFGQGTKVEIK | < 0.1 µg/mL | < 0.1 µg/mL
ZIKV-120765-491 (antibody, V domains shown) VH: EVQLVESGGGLVQPGGSLRLSCAASGFTFIRYAMSWVRQAPGKGLEWVSDISGSGGSTFYADSVKGRFTISRDNSKNTLYLQMNSLRAEDTAVYYCARDDEGYTTNWYDAYDIWGQGTMVTVSS VL: DIQMTQSPSSLSASVGDRVTITCRASQSIGSYLNWYQQRPGKAPKLLIYTASSLQSGVPSRFSGSGSGTDFILTISSLQPEDFATYYCQQNYNIPQVTFGPGTKVDIK | < 0.1 µg/mL | < 0.1 µg/mL
